Molecular target: human NGF (human) (UniProt P01138)
Test: cell-based or functional assay

human NGF (human), sequence (P01138 122-241 limits assumed): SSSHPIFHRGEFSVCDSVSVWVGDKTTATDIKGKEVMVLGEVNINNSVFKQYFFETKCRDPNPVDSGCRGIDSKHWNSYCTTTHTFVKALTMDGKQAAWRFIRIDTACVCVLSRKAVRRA

mouse antibody 911 (Fab)
antibody concentration that totally blocked NGF-elicited survival of trigeminal neurons: 20 nM

Source: patent US20140017235A1
